Reference: US20030129189A1, “Tumor necrosis factor-gamma” (priority 1994, published 2003)
Read-outs that look alike come from different tables or passages of the source.

Experiments:
DR3 = assay: FACS binding of FLAG-tagged soluble TL1β to cells transfected with DR3; parameters: species or system human
Description: A FLAG-tagged soluble form of the TL1 (aa 72-251) protein was tested for binding of cells transiently transfected with different members of the TNFR family, including TNFR2, LTβR, 4-1BB, CD27, CD30, BCMA, DR3, DR4, DR5, DR6, DcR1, DcR2, RANK, HveA, and AITR. […] The small shift (˜30%) seen when full length DR3 was used is likely due to the presence of low DR3-expressing cells while DR3 overexpressed cells undergone apoptosis.
(§1) One million cells, in 0.1 ml of FACS buffer (PBS, 0.1% BSA, 0.1% NaN3), were incubated with 0.1-1 microgram of protein or antibody at RT for 15 min. The cells were washed with 3 ml of FACS buffer, reacted with biotinylated primary antibody, and stained with PE-conjugated secondary antibody at RT for 15 min. Cells were then washed again, resuspended in 0.5 microgram/ml of propidium iodide, and live cells were gated and analyzed on a FACScan using the CellQuest software (BD Biosciences).

TF-1/SRE-SEAP cells = assay: SEAP assay: TNF-gamma-beta induced SEAP in TF-1/SRE-SEAP reporter cells; type: cell-based; settings: without TNF-gamma-beta
Description: (§2) Briefly, a poly-D-lysine coated 96-well plate is seeded with TF-1/SRE-SEAP cells (in RPMI+0.2% Fetal bovine serum) at 75,000 cells per well. […] Again cells were incubated overnight. After overnight incubation, conditioned media were collected and SEAP activity was determined using the SEAP Reporter Gene Assay available from Roche Molecular Biochemicals (Indianapolis, Ind.) according to the manufacturer's directions. Briefly, Conditioned media were diluted 1:4 into dilution buffer. Samples were incubated at 65C for 30 minutes to eliminate contaminating AP activity usually present in culture medium. 25 microliters of the heat-inactivated samples were mixed with equal volume of inactivation buffer (containing a mixture of differential alkaline phosphatase inhibitors). Following a 5-minute incubation at room temperature, 50 uL of alkaline phosphatase substrate (CSPD) was added to each well. Chemiluminescence signal was read 10-15 minutes later using a luminometer.
(§3) The premyeloid cell line TF-1 was stably transfected with SRE/SEAP (Signal Response Element/Secreted Alkaline Phosphatase) reporter plasmid that responds to the SRE signal transduction pathway.

TNF-gamma-beta [1] = biological target: T1, TNF-gamma-beta (Homo sapiens, UniProt O95150); assay: Neutralization of TNF-gamma-beta induced SEAP production in TF-1/SRE reporter cells; type: cell-based; settings: TNF-gamma-beta at 200 ng/mL, TF1/SRE reporter cells
T1 construct: made in house; host or cells: 293T cells, transient transfection
T1 sequence (O95150 72-251 limits assumed): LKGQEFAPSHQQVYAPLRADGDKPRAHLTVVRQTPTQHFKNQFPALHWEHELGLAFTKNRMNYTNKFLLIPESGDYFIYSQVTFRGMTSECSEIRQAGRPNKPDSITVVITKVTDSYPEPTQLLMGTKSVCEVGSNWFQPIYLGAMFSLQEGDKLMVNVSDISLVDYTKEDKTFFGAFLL
Description: as §2
These solutions were then incubated for 1 hour at room temperature. […] After the overnight incubation, the SEAP assay was performed as described above.
as §3

TNF-gamma-beta [2] = biological target: T2, TNF-gamma-beta (Homo sapiens, UniProt O95150); assay: Inhibition of TNF-gamma-beta induced caspase activation in TF-1 cells; type: cell-based; settings: presence of cycloheximide
T2 construct: made in house; host or cells: E. coli (untagged) or 293T (FLAG-tagged)
T2 sequence (O95150 72-251): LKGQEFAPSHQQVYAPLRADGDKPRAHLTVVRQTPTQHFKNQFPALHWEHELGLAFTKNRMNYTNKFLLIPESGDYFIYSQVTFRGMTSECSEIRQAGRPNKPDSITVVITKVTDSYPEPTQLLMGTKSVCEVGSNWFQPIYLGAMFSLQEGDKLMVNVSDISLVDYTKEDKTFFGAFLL
Description: Briefly, cells growing in microtiter plates are induced to undergo apoptosis, causing an activation of caspase activities. Equal volume of a caspase substrate (Asp-Glu-Val-Asp-Rhodamine 110, or DEVD-R110) solution is then added and incubated for at least 1 hour. During this incubation, cells are being lysed and free R110 is released from the substrate. The level of free R110 is determined fluorimetrically, using a fluorescence reader with excitation filter 470-500 nm and emission filter 500-560 nm.
A black 96-well plate with a clear bottom is seeded with 75,000 TF-1 cells in RPMI containing 1% fetal bovine serum and micrograms/milliliter cyclohexamide. […] Following the manufacturer's directions, an equal volume of 1×substrate solution containing 50 micromolar DEVD-R110 diluted in incubation buffer is added to each well. The 96-well plates are then incubated for 2 hours after which the plate is read in a fluorescence reader with an excitation filter at 485 nm and an emission filter at 535 nm.
These solutions were then incubated for 1 hour at room temperature.
The reagents were incubated for 1 hour at RT to allow the formation of protein-TNF-gamma-beta complexes and then added to the cells. Caspase activity was measured as described above.

TNF-gamma-beta [3] = biological target: T2, TNF-gamma-beta; assay: Inhibition of TNF-gamma-beta activation of NF-κB in 293T cells; type: cell-based
Description: To avoid spontaneous apoptosis or NF-κB activation accompanied with DR3 overexpression, a limited amount of DR3-expression DNA that by itself minimally activated these pathways was used.
293T cells were transiently transfected using LipofectAMINE and PLUS reagents according to the manufacturer's instruction (Invitrogen). For reporter assays, 293T cells, at 5×10^5 cells/well, were seeded in 6-well plates and transfected with a total of 1 microgram of DNA. pC4 DNA was used as filler DNA. Conditioned supernatant was collected 24 hr post-transfection and assayed for secreted alkaline phosphatase (SEAP) activity using the Phospha-Light™ chemiluminescent reporter gene assay system (Tropix). pCMV-lacZ was used as internal control for transfection efficiency normalization.

TNF-gamma-beta [4] = biological target: T1, TNF-gamma-beta; assay: Coimmunoprecipitation of TNF-gamma-beta by TNFR-Fc proteins; type: binding
Text: The beads were then precipitated and washed extensively with PBST buffer (PBS, 0.5% Triton X-100) before boiled in SDS-sample buffer. Proteins were resolved on 4-20% Tris-Glycine gels (NOVEX), transferred to nitrocellulose membranes, and blotted with anti-Flag M2 monoclonal antibody (1 microgram/ml, Sigma) andhorseradish peroxidase (HRP)-conjugated goat anti-mouse IgG antibody (0.5 microgram/ml).

TNF-gamma-beta [5] = biological target: T3, TNF-gamma-beta (Homo sapiens, UniProt O95150); assay: FACS binding of receptor-Fc proteins to cells expressing full length TNF-gamma-beta
T3 construct: expressed in transfected cells
T3 sequence (O95150 1-251): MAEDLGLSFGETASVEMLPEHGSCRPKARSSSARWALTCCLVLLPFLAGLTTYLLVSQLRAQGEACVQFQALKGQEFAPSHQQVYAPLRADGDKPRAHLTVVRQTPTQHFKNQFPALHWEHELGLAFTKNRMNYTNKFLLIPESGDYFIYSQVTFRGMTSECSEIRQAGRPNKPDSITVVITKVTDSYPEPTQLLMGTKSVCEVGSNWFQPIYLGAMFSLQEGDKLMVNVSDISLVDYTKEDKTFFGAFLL
Description: These cells were used to screen the Fc-fusion form of the extracellular domain of TNFR family members, including TNFR1, Fas, HveA, DR3, DR4, DR5, DR6, DcR1, DcR2, TR6, OPG, RANK, AITR, TAC1, CD40, and OX40. […] TR6 has been previously described as a decoy receptor (Pitti et al., Nature 396:699-703 (1998); Yu et al., J. Biol. Chem. 274:13733-6 (1999)) capable of competing with Fas and HveA for binding of FasL and LIGHT, respectively.
Cells resistant to 0.5 mg/ml Genticin (Invitrogen) were selected and expanded. Expression of TNF-gamma-beta mRNA was confirmed by quantitative RT-PCR analysis and surface expression of TNF-gamma-beta protein confirmed by FACS analyses using TNF-gamma-beta monoclonal antibodies.
as §1

TNF-gamma-beta [6] = biological target: T2, TNF-gamma-beta; assay: Inhibition of TNF-gamma-beta-mediated IFNγ secretion from T cells; type: cell-based; settings: costimulated T cells
Description: The extent of the increase in IL-2 receptor expression is consistent with the moderate increase in IL-2 responsiveness compared with IL-2 itself.
1×10^5 cells/ml of purified T cells were seeded in a 24-well tissue culture plate that had been coated with anti-CD3 (0.3 microgram/ml) and anti-CD28 (5.0 microgram/ml) overnight at 4° C. […] ELISA assay for IFNγ, GM-CSF, IL-2 IL-4, IL-10 and TNFα were performed using kits purchased from R & D Systems. Recombinant human IL-2 (5 ng/ml) was used as a positive control. All samples were tested in duplicate and results were expressed as an average of duplicate samples plus or minus error.

primary T cells = assay: Caspase assay in PHA-activated primary T cells; type: cell-based, human; settings: presence or absence of cycloheximide
Description: Overexpression of DR3 in cell lines induces capase activation (Chinnaiyan et al., Science 274:990-2 (1996); Kitson et al., Nature 384:372-5 (1996); Marsters et al., Curr. Biol. 6:1669-76 (1996); Bodmer et al., Immunity 6:79-88 (1997)). We tested whether TL1β could induce caspase activation in primary T cells.
TF-1 cells or PHA-activated primary T cells were seeded at 75,000 cells/well in a black 96-well plate with clear bottom (Becton Dickinson) in RPMI Medium containing 1% fetal bovine serum (Biowhittaker). […] Caspase activity was measured directly in the wells by adding equal volume of a lysis buffer containing 25 μM DEVD-rodamine 110 (Roche Molecular Biochemicals), and allowed the reaction to proceed at 37C for 1 to 2 hours. Release of rodarmine 110 was monitored with a Wallac Victor2 fluorescence plate reader with excitation filter 485 nm and emission filter 535 nm.

For “FLAG-TL1β: FLAG-tagged soluble form of the TL1 (aa 72-251) protein”, the “binding to cells expressing full length or DD-deleted DR3” value (DR3) was “consisitently detected”.

B1: TR6.Fc: full length TR6 (aa 1-300) fused to the Fc domain of human IgG1 (protein)
chain: VAETPTYPWRDAETGERLVCAQCPPGTFVQRPCRRDSPTTCGPCPPRHYTQFWNYLERCRYCNVLCGEREEEARACHATHNRACRCRTGFFAHAGFCLEHASCPPGAGVIAPGTPSQNTQCQPCPPGTFSASSSSSEQCQPHRNCTALGLALNVPGSSSHDTLCTSCTGFPLSTRVPGAEECERAVIDFVAFQDISIKRLQRLLQALEAPEGWGPTPRAGRAALQLKLRRRLTELLGAQDGALLVRLLQALRVARMPGLERSVRERFLPVH
modifications: left off: a dimerising Fc or GST
notes: full length TR6 (aa 1-300) fused to the Fc domain of human IgG1
In the case of B1, the “SEAP activity of the Fc protein by itself” value (TF-1/SRE-SEAP cells) is reported as “showed no activity”, the “neutralization of TNF-gamma-beta SEAP activity by receptor-Fc” value (TNF-gamma-beta [1]) is reported as “can be neutralized by TR6.fc fusion protein in a dose dependent manner” and the “inhibition of TNF-gamma-beta induced caspase activation” value (TNF-gamma-beta [2]) is reported as “inhibited by either DR3-Fc or TR6-Fc protein”. The “inhibition of TNF-gamma-beta activation of NF-κB” value (TNF-gamma-beta [3]) was “able to inhibit”, the “inhibition of TNF-gamma-beta activation of NF-κB” value (TNF-gamma-beta [3]; listed as TR6-Fc) was “specifically inhibited” and the “immunoprecipitation of TNF-gamma-beta” value (TNF-gamma-beta [4]) was “can be used to immunoprecipitate TNF-gamma-beta”. For the same molecule, the “immunoprecipitation of TNF-gamma-beta” value (TNF-gamma-beta [4]; listed as TR6-Fc) was “specifically interacted with FLAG-TNF-gamma-beta”, the “binding to cells expressing TNF-gamma-beta (FACS)” value (TNF-gamma-beta [5]) was “specifically bind cells transfected with TNF-gamma-beta” and the “binding to cells expressing TNF-gamma-beta (FACS)” value (TNF-gamma-beta [5]; listed as TR6-Fc) was “bound efficiently”. The “inhibition of TNF-gamma-beta-mediated IFNγ secretion” value (TNF-gamma-beta [6]) was “able to inhibit”.

B2: FasL: Fas ligand, positive control for caspase activation in T cells (protein, UniProt P48023 130-281, looked up)
Tumor necrosis factor ligand …: QIGHPSPPPEKKELRKVAHLTGKSNSRSMPLEWEDTYGIVLLSGVKYKKGGLVINETGLYFVYSKVYFRGQSCNNLPLSHKVYMRNSKYPQDLVMMEGKMMSYCTTGQMWARSSYLGAVFNLTSADHLYVNVSELSLVNFEESQTFFGLYKL
With B2 the “caspase activity in PHA-activated T cells” value (primary T cells) was “readily measured”.
